Data set [1] concerns the molecule itself. Kind of data set: size-exclusion chromatography, self-association (homodimer). As to the method: FIG. 7. Size exclusion chromatography (SEC) traces of purified SP apo-proteins. Proteins were injected as 0.5 mL aliquots onto a Superdex™ 200 Increase 10/300 GL column (Cytiva Life Sciences). The narrow, isolated peaks indicate that the samples contain monodisperse protein. Running buffer was 150 mM NaCl, 10 mM Tris at pH 8. Proteins were purified by Ni-NTA and one round of SEC prior to collecting the data shown.
Proteins were purified by Ni-NTA and size-exclusion chromatography (SEC) (FIG. 7). […] A slightly lower predicted radius of gyration (Rg) value compared to experimental SAXS data is likely due to a dense hydration shell around the highly charged SP proteins (Svergun et al. 1998; Kim et al. 2016). The far ultraviolet (UV) circular dichroism (CD) spectra of three SP proteins that expressed in high yield (≥140 mg/L) show the proteins are highly α-helical with and without the synthetic Chl a derivative, Zn pheophorbide a methyl ester (ZnPPaM). Thermal denaturation curves monitored by the CD signal at 222 nm indicate that all three proteins are highly thermostable in the apo- and holo-states (FIG. 2).

Data set [2] can be described thus: ZnPPaM binding titration monitored by CD in the Qy region. To be noted: curve fitting. From the text: (§1) At longer wavelengths in the UV/visible/near-infrared (UV/vis/NIR), CD spectra can serve as a convenient probe of excitonic interactions between Chls. […] When Chl dimers are arranged in chiral protein environments, however, excitonic interactions can produce delocalized transitions with chiral character, yielding CD signals that are stronger and conservative (i.e., composed of a bisignate doublet that integrates to zero). […] Curve fitting of the CD titrations yields SP2-ZnPPaM dissociation constants (KDs) of 300 nM for KD1 and 2.5 μM for KD2, and SP3-ZnPPaM KDs of 800 nM for KD1 and 1.0 μM for KD2 (data not shown). Due to the lower CD signal of the SP1-ZnPPaM complex, we instead used absorbance and fluorescence to measure the SP1-ZnPPaM interaction. Absorption titrations yielded curve fits with KD1 and KD2 values of 290 nM and 430 nM for SP1, 110 nM and 2.0 μM for SP2, and 350 nM and 940 nM for SP3, respectively (FIG. 9).
Circular Dichroism (CD) spectroscopy: CD spectra were collected using a J-1500 spectrophotometer. For protein secondary structure assays, spectra were measured on samples of 0.2-0.4 mg/mL protein in 1 mm quartz cuvettes from 260 to 190 nm with a 1 nm bandwidth, 1 nm data interval, data integration time (DIT) of 1 second, and scanning speed of 50 nm/min. Thermal melts were monitored at 222 nm from 2 to 98° C. with a 2 nm bandwidth and 8 second DIT. UV/vis/near-infrared (NIR) CD transitions of protein-bound Chls were examined in the 800-300 nm region in 1 cm quartz cuvettes as averages of 10 scans using a 3 nm bandwidth, 1 nm data interval, DIT of 4 seconds, and scanning speed of 50 nm/min unless otherwise noted. UV/vis/NIR CD spectra shown in FIG. 2 were collected after sterile filtering with 0.22 μm filter and PD-10 desalting column purification (Sephadex™ G-25 M resin, Cytiva Life Sciences). Each spectrum represents the average of two independent sample preparations. Samples contained 8-15 μM protein (monomer concentration) with equimolar ZnPPaM, 150 mM NaCl, and 10 mM Tris buffer at pH 8. ZnPPaM dry powder was dissolved in methanol stock solutions immediately before adding to protein solutions. Samples were allowed to incubate for 8-16 hours at room temperature prior to measuring spectra.

The nature of data set [3]: ZnPPaM binding titration monitored by UV/vis absorbance. To be noted: absorption titration. The protocol:
FIG. 9. SP2-ZnPPaM binding titration monitored by UV/vis absorbance. (a) UV/vis titration of ZnPPaM into a solution of 20 μM SP2 dimer ([…] of SP2 monomer) in 150 mM NaCl, and 10 mM Tris at pH 8. Samples were prepared separately with 0.25 to 4 equivalents (eq.) of ZnPPaM per SP2 protein dimer (2.0 eq. ZnPPaM would be a stoichiometric amount). The y-axis is the molar extinction coefficient, &, or OD divided by ZnPPaM concentration. ZnPPaM was added to protein samples from a DMSO stock solution. Samples were incubated overnight for 20 hours at 4° C. before measurement at room temperature. (b) The same data as in panel (a) zoomed in on the Qy region. Arrows indicate the direction & changes as a function of increasing ZnPPaM concentration. (c) Fitted spectra and (d) species concentration vs. molar ratio of ligand to protein from fitting of the absorbance spectra in panels (a) and (b). During fitting, only the P+L→PL and PL+L→PL2 reactions were considered, and ZnPPaM aggregation was disregarded. (P represents SP2 dimer protein and L represents ZnPPaM ligand). Curve fitting gives dissociation constants (KDs) of 110 nM and 2.0 μM for KD1 and KD2, respectively. Fittings were performed with an algorithm that combines singular value decomposition and least squares regression, as implemented in ReactLab™ Equilibria. (e) Full spectra and (f) the Qy region of a second titration with SP2 dimer protein concentration held at 2.0 μM. At 2.0 μM protein, the intensities of the spectral features at 669 and 692 nm depend upon the molar ratio of protein to ZnPPaM in a manner similar to the 20 μM protein titration shown in panels (a) and (b).
as §1
Protein-chlorophyll sample preparation: Zn pheophorbide a methyl ester (ZnPPaM) was purchased from Frontier Scientific, Inc. ZnPPaM stock solutions were prepared in dimethyl sulfoxide (DMSO) or methanol to concentrations between 200 μM and 1 mM. ZnPPaM concentrations were determined using mass measurements and by using the known absorptivity of Zn pheophytin a, which has a similar absorbance spectrum and an extinction coefficient €659 nm of 77,300 M^−1 cm^−1 in 80% acetone/20% deionized water (Jones et al. 1976). Ultraviolet/visible (UV/vis) absorbance spectra were collected using a V-750 spectrophotometer with a 1 nm bandwidth and 400 nm/min scanning speed. Protein-ZnPPaM complexes were prepared by slowly adding freshly-prepared ZnPPaM stock solution to protein solution in aqueous buffer at room temperature and incubating samples for several hours. Unbound ZnPPaM was removed by centrifugation to pellet precipitated ZnPPaM, sterile filtration using a 0.22 μm syringe filter, and/or running a PD-10 desalting column purification (Sephadex™ G-25 M resin, Cytiva Life Sciences).

Data set [4] can be described thus: ZnPPaM fluorescence titration, 1:1 binding model. To be noted: 1:1 binding model of protein monomer to ZnPPaM, approximates average of KD1 and KD2, read-out: KD estimate.
Excerpt: as §1

[5] abbreviates: first ZnPPaM binding (data not shown), read-out: dissociation constant KD1.
Where [6] appears, read: second ZnPPaM binding (data not shown), read-out: dissociation constant KD2.
Setting [7] is: P+L→PL, 150 mM NaCl, 10 mM Tris pH 8, read-out: dissociation constant KD1.
Setting [8] is: PL+L→PL2, read-out: dissociation constant KD2.

B1: JD (designed binder)
chain: SGSSDEEYARMSAELAEEAAKEALEQAKREGDEDARRVAEELEKQAEEARRKKDFDLANLVLMAAIILLLALIILELAKKAGNEQMEASGLSLLATAALLAAAGGENSEDARKALEAALRLAERATEVLEKIAKKGETALEKAIAAGTLVMLIQIIIQIAELLSKLGDTEEAKKVLDIAIELIKRVTEILERIAKKADTDILAQAAAGHLIYLIQLLMQISILLRRLGNIDEAFKVLEEARELAERVRELLERIAKNSDK
notes: Designed homodimer subunit, after TEV cleavage
For the molecule B1, the binding result in data set [1] is listed as “binds”.

B2: SP2: de novo designed chlorophyll special pair protein, C2 homodimer (protein)
chain: SGSGSSDEEFKFLATEAKMLITAAERLAGTDPELQEMVALIKKELEQAERTFRNGDKSEAQRQLEFVLTAARAVMNVAAAANAAGTDPELIEMVLRILKQLKEAIRTFQNGDQEEAETQLRFVLRAAIAVAVVAAALVLAGTDPELQEMVKQILEELKQAIETFARGDKEKALTQLLFVAWAAHAVAMIAAAANLAGTDPRLQQQVKEILEKLKEAIETFQKGDEEQAFRQLAEVLAEAALVALRAALTN
modifications: homodimer; VARIANT 1..6 optionally absent; VARIANT 33 optionally absent; VARIANT 89..100 optionally absent; VARIANT 111..115 optionally absent; VARIANT 151..169 optionally absent; VARIANT 197..199 optionally absent
notes: de novo designed chlorophyll special pair protein, C2 homodimer
In the case of B2, the Kd is 300 nM in data set [2] (setting [5]); 2500 nM in data set [2] (setting [6]); 110 nM in data set [3] (setting [7]); 2000 nM in data set [3] (PL+L→PL2, 150 mM NaCl, 10 mM Tris pH 8, read-out: dissociation constant KD2); 480 nM in data set [4].

B3: JC (designed binder)
chain: SGSTEKLKKVLERVRELAERAKESTSPEEALIIALLVSSLAIAAVMLDPSEEASTAVKIAIKIAEEVAKRVSDSQLSASIALSIASLALVAAEAAGDEELSKLALRLAKLAAELAKDALRIAEERGNAIDAAIAVGIVVMVAAILLQLAKLLGSEEALKEALEVAEEAARLAKRVLELAERVGDPQVALAAVGHVQMVAILLAQIARESGSEEAKERAERVARESMELAERVLELMRREGKW
notes: as for B1
With B3, in data set [1], the binding result was “binds”.

B4: JE (designed binder)
chain: SGSGSSDELAALFLIISAKSQAWQAQSAAERTGDPRVRELARELKRLAQEAAEEVKRDPSSSEVNKNLQLISMAIALAVLALQLARKAGDEEARDIAREAVEVAVRAAQLILEGRDEQRAQTLFLIAHALLMAVMAARLGNSEVAELAVKVLRLAKELEKLLPSEIALFVVLMIALAALSAAMAASGGQEDYARDALRRLEEAIREAEENRSKESLEKVIEEAIEAMLQANRAQTGG
notes: as for B1
For the molecule B4, the binding result in data set [1] is given as “binds”.

B5: JB (designed binder)
chain: SGSTEELKKVLEDVRELAERAKESTDPEEALIIAILVIIRALAAVALDPSEEASTAVKIAIKIAEEVAKRVSDSELSASIALLIANLALVAAKAAGDEELSKLALRLAKLAAELAKDALRIAEERGNAWQAAIAVGVVVMVATILLALAKQLGSEEALKEALEVAEEAARLAKRQLELAERVGDPIVALAAVGHVFMVAMLLAQIARESGSEEAKERAKRVAEEAEELAERVYELMRREGK
notes: as for B1
With B5, the binding result in data set [1] is given as “binds”.

B6: SP1: de novo designed chlorophyll special pair protein, C2 homodimer (protein)
chain: GGDSRELIARYQILLAELAAIRADIAAERTGDPYVRKLARELKRLAQEAAEEVKRDPSSSDVNMALLLILLMIELAVRALEAAERTGDPEVRELAAELVWLAVEAAEEVQRNPSSSDVWLALHLIMLAIWAAVAALEAAERTGDPEVRELARELVRLAVEAAEEVQRNPSSKEVYMALLLILIAILEAVLSLLRAERSGDPEKREKARERVREAVERAEEVQR
modifications: homodimer; VARIANT 1..2 optionally absent
notes: as for B2
Turning to B6, the Kd in data set [3] (setting [7]) is 290 nM; in data set [3] (setting [8]), 430 nM; in data set [4], 660 nM.

B7: SP3: de novo designed chlorophyll special pair protein, C2 homodimer (protein)
chain: SGSSEELARESAEAAWRLAQAGTRLMLAWIRGDLKEIAEALIELARAVQELARVAKEYGNDELAKTAALLAAHVAMLAILVLIRAIKEGDDEVRELAKTAIKLASTAAKIVLDALPTAEEVRQITLLAKLAEEAADKKNEDSALAVGIAAAAVLLALLALEAAQKAGIEEAEKGARLLLKLAMDAARKKNPEEALAVFNAALDVSIALKLLQSAKRAGSEETRKLAEEMLRQALERARK
modifications: homodimer; VARIANT 1..4 optionally absent
notes: as for B2
B7: the Kd is 800 nM in data set [2] (setting [5]); 1000 nM in data set [2] (setting [6]); 350 nM in data set [3] (setting [7]); 940 nM in data set [3] (setting [8]); 120 nM in data set [4].
